Measurements from patent publication US20140105889A1 (published 2014).
Changes are numbered by the printed parent chain. Names may count otherwise. Each block holds one binder with its values, some of them ahead of it.

What was measured:
human FcγRIIa type R = target: T1, human FcγRIIa type R (human, UniProt P12318 36-217); assay: SPR (Biacore), FcγR over captured antibody; amount bound relative to IL6R-BF648/IL6R-L x100
T1 construct: also called FcγRIIaR; FcγRIIa(R)
T1 chain: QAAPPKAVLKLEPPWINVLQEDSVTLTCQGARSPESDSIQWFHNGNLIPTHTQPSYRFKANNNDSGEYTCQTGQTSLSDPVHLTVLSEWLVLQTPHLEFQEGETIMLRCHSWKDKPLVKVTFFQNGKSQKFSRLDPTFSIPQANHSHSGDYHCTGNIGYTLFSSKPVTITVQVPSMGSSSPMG

human FcγRIIIa type V = target: T2, human FcγRIIIa type V (human, UniProt P08637 17-208, limits assumed); assay: as above
T2 construct: also called FcγRIIIaV; FcγRIIIa(V)

human FcγRIa = target: T3, human FcγRIa (human, UniProt P12314 16-292, limits assumed); assay: as above
T3 construct: also called CD64

human FcγRIIa type H = target: T4, human FcγRIIa type H (human, UniProt P12318 36-217); assay: as above
T4 construct: Whole entry named for FcγRIIa allotype H131 (AAH20823.1); also called FcγRIIaH; FcγRIIa(H)
T4 sequence: T1 chain with R133H

human FcγRIIb [1] = target: T5, human FcγRIIb (human, UniProt P31994 43-217); assay: as above
T5 construct: also called FcγIIB
T5 sequence: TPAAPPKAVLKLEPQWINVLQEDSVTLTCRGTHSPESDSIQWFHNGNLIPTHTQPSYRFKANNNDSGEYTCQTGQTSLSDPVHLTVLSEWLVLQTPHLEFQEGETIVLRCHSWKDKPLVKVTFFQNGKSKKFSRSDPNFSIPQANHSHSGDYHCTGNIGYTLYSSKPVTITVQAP

human FcγRIIb [2] = target: T6, human FcγRIIb (human, UniProt P31994 43-217); assay: SPR (Biacore); KD of parent IL6R-B3/IL6R-L for FcγRIIb divided by KD of the variant for FcγRIIb
T6 construct: also called FcγIIB
T6 sequence: T5 sequence
Text: Furthermore, KD(IIaR)/KD(IIb) and KD(IIaH)/KD(IIb) in the table respectively represent the value obtained by dividing the KD value of each variant for FcγRIIaR by the KD value of each variant for FcγRIIb, and the value obtained by dividing the KD value of each variant for FcγRIIaH by the KD value of each variant for FcγRIIb.

T2 sequence (P08637 other isoform, or with tags, fused parts or gaps limits assumed): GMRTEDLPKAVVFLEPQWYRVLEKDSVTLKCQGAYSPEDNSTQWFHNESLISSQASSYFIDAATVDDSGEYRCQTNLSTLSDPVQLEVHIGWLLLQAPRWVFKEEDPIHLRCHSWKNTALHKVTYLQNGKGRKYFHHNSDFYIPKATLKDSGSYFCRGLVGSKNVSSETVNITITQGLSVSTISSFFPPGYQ
T3 sequence (P12314 16-292 limits assumed): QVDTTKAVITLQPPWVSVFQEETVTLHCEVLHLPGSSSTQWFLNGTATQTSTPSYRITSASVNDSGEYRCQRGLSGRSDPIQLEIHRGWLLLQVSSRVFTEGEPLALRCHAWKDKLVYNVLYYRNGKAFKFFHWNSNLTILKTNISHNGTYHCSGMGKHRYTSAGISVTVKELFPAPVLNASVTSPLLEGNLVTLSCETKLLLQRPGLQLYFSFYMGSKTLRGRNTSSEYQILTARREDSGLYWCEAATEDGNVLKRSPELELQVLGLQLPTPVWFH

relative binding (human FcγRIIa type R): 625 relative value (IL6R-BF648/IL6R-L = 100) | relative binding (human FcγRIIIa type V): 3260 relative value (IL6R-BF648/IL6R-L = 100) | relative binding (human FcγRIa): 145 relative value (IL6R-BF648/IL6R-L = 100) | relative binding (human FcγRIIa type H): 1600 relative value (IL6R-BF648/IL6R-L = 100) | relative binding (human FcγRIIb [1]): 58 relative value (IL6R-BF648/IL6R-L = 100)
B1: IL6R-B3/IL6R-L (antibody, human IgG1)
heavy: not shown
light: DIQMTQSPSSLSASVGDRVTITCRASQDISSYLNWYQQKPGKAPKLLIYYTSRLHSGVPSRFSGSGSGTDFTFTISSLQPEDIATYYCQQGNTLPYTFGQGTKVEIK
notes: IL6R-G1d with K439E (EU numbering); copies: 2 + 2

KD(IIb) of the parent polypeptide/KD(IIb) of the altered polypeptide (human FcγRIIb [2]): 27.3
B2: IL6R-BP192/IL6R-L (antibody, human IgG1)
heavy: QVQLQESGPGLVKPSETLSLTCAVSGHSISHDHAWSWVRQPPGEGLEWIGFISYSGITNYNPSLQGRVTISRDNSKNTLYLQMNSLRAEDTAVYYCARSLARTTAMDYWGEGTLVTVSSASTKGPSVFPLAPSSKSTSGGTAALGCLVKDYFPEPVTVSWNSGALTSGVHTFPAVLQSSGLYSLSSVVTVPSSSLGTQTYICNVNHKPSNTKVDKKVEPKSCDKTHTCPPCPAPDLLGGDSVFLFPPKPKDTLMISRTPEVTCVVVDVSDEDGEVKFNWYVDGVEVHNAKTKPREEQDNSTYRVVSVLTVLHQDWLNGKEYKCKVSNKALPKPIEKTISKAKGQPREPQVYTLPPSRDELTKNQVSLTCLVKGFYPSDIAVEWESNGQPENNYKTTPPVLDSDGSFFLYSKLTVDKSRWQQGNVFSCSVMHEALHNHYTQESLSLSP
light: B1 light
notes: Anti-human IL-6 receptor human IgG1 variant; copies: 2 + 2

relative binding (human FcγRIIa type R): 175 relative value (IL6R-BF648/IL6R-L = 100) | relative binding (human FcγRIa): 125 relative value (IL6R-BF648/IL6R-L = 100) | relative binding (human FcγRIIb [1]): 114 relative value (IL6R-BF648/IL6R-L = 100)
B3: IL6R-BP120/IL6R-L (antibody, human IgG1)
heavy: B2 heavy with D235E, D270H, G273P, D298Y, K328E, K332A
light: B1 light
notes: copies: 2 + 2

relative binding (human FcγRIIa type R): 101 relative value (IL6R-BF648/IL6R-L = 100) | relative binding (human FcγRIa): 52 relative value (IL6R-BF648/IL6R-L = 100) | relative binding (human FcγRIIa type H): 108 relative value (IL6R-BF648/IL6R-L = 100) | relative binding (human FcγRIIb [1]): 119 relative value (IL6R-BF648/IL6R-L = 100)
B4: IL6R-BP911/IL6R-L (antibody, human IgG1)
heavy: B2 heavy with D235E, D270H, G273P, D298Y
light: B1 light
notes: copies: 2 + 2

relative binding (human FcγRIIIa type V): 94 relative value (IL6R-BF648/IL6R-L = 100) | relative binding (human FcγRIa): 73 relative value (IL6R-BF648/IL6R-L = 100) | relative binding (human FcγRIIa type H): 83 relative value (IL6R-BF648/IL6R-L = 100) | relative binding (human FcγRIIb [1]): 104 relative value (IL6R-BF648/IL6R-L = 100)
B5: IL6R-2B169/IL6R-L (antibody, human IgG1)
heavy: B2 heavy with D235E, D270H, G273P, D298Y, V325I, K332A
light: B1 light
notes: copies: 2 + 2

relative binding (human FcγRIIa type R): 244 relative value (IL6R-BF648/IL6R-L = 100) | relative binding (human FcγRIIIa type V): 144 relative value (IL6R-BF648/IL6R-L = 100) | relative binding (human FcγRIa): 140 relative value (IL6R-BF648/IL6R-L = 100) | relative binding (human FcγRIIa type H): 179 relative value (IL6R-BF648/IL6R-L = 100) | relative binding (human FcγRIIb [1]): 132 relative value (IL6R-BF648/IL6R-L = 100)
B6: IL6R-2B172/IL6R-L (antibody, human IgG1)
heavy: B2 heavy with D235E, D270H, G273P, D298Y, V325M, K332A
light: B1 light
notes: copies: 2 + 2

relative binding (human FcγRIIa type R): 103 relative value (IL6R-BF648/IL6R-L = 100) | relative binding (human FcγRIa): 98 relative value (IL6R-BF648/IL6R-L = 100) | relative binding (human FcγRIIa type H): 97 relative value (IL6R-BF648/IL6R-L = 100) | relative binding (human FcγRIIb [1]): 106 relative value (IL6R-BF648/IL6R-L = 100)
B7: IL6R-BP142/IL6R-L (antibody, human IgG1)
heavy: B2 heavy with D235E, D270H, G273P, D298Y, K328N, K332A
light: B1 light
notes: copies: 2 + 2

relative binding (human FcγRIIa type R): 87 relative value (IL6R-BF648/IL6R-L = 100) | relative binding (human FcγRIIIa type V): 96 relative value (IL6R-BF648/IL6R-L = 100) | relative binding (human FcγRIa): 95 relative value (IL6R-BF648/IL6R-L = 100) | relative binding (human FcγRIIa type H): 37 relative value (IL6R-BF648/IL6R-L = 100) | relative binding (human FcγRIIb [1]): 103 relative value (IL6R-BF648/IL6R-L = 100)
B8: IL6R-2B128/IL6R-L (antibody, human IgG1)
heavy: B2 heavy with D235E, D270H, G273P, K332A
light: B1 light
notes: copies: 2 + 2

relative binding (human FcγRIIa type R): 340 relative value (IL6R-BF648/IL6R-L = 100) | relative binding (human FcγRIa): 119 relative value (IL6R-BF648/IL6R-L = 100) | relative binding (human FcγRIIa type H): 113 relative value (IL6R-BF648/IL6R-L = 100) | relative binding (human FcγRIIb [1]): 157 relative value (IL6R-BF648/IL6R-L = 100)
B9: IL6R-BP112/IL6R-L (antibody, human IgG1)
heavy: B2 heavy with D235E, D270H, D298Y, K332A
light: B1 light
notes: copies: 2 + 2

relative binding (human FcγRIIa type R): 128 relative value (IL6R-BF648/IL6R-L = 100) | relative binding (human FcγRIIIa type V): 127 relative value (IL6R-BF648/IL6R-L = 100) | relative binding (human FcγRIa): 105 relative value (IL6R-BF648/IL6R-L = 100) | relative binding (human FcγRIIa type H): 127 relative value (IL6R-BF648/IL6R-L = 100) | relative binding (human FcγRIIb [1]): 101 relative value (IL6R-BF648/IL6R-L = 100)
B10: IL6R-BP110/IL6R-L (antibody, human IgG1)
heavy: B2 heavy with D235E, D270N, G273P, D298Y, K332A
light: B1 light
notes: copies: 2 + 2

relative binding (human FcγRIIa type R): 167 relative value (IL6R-BF648/IL6R-L = 100) | relative binding (human FcγRIa): 113 relative value (IL6R-BF648/IL6R-L = 100) | relative binding (human FcγRIIa type H): 132 relative value (IL6R-BF648/IL6R-L = 100) | relative binding (human FcγRIIb [1]): 103 relative value (IL6R-BF648/IL6R-L = 100)
B11: IL6R-BP126/IL6R-L (antibody, human IgG1)
heavy: B2 heavy with D235E, D270H, G273P, D298Y, K328L, K332A
light: B1 light
notes: copies: 2 + 2
